Assay results reported in patent US20210139582A1.

What was measured:
[1] = biological target: C-terminus biotinylated monomeric human CD32a^H (FcγRIIa, histidine-131 variant), recombinant (human) (UniProt P12318); test: SPR, estimated steady state KD, monomeric IgG, pH 7.4
[2] = biological target: C-terminus biotinylated monomeric human CD32a^R (FcγRIIa, arginine-131 variant), recombinant (human) (UniProt P12318); test: as above
C-terminus biotinylated monomeric human CD32a^R (FcγRIIa, arginine-131 variant), recombinant (human), sequence (P12318 other isoform, or with tags, fused parts or gaps mutant): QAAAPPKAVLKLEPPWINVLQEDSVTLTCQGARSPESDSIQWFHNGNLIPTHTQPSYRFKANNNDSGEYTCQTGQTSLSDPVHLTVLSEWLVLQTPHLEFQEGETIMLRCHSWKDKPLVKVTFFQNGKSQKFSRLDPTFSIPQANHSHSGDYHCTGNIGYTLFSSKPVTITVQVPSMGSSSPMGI

C-terminus biotinylated monomeric human CD32a^H (FcγRIIa, histidine-131 variant), recombinant (human), sequence (P12318 34-218 limits assumed, change not shown): as the sequence (P12318 other isoform, or with tags, fused parts or gaps mutant) above, with R134H counted along it
anti-NIP mouse IgG2a (mIgG2a^WT) (antibody), sequence (P01863 whole entry): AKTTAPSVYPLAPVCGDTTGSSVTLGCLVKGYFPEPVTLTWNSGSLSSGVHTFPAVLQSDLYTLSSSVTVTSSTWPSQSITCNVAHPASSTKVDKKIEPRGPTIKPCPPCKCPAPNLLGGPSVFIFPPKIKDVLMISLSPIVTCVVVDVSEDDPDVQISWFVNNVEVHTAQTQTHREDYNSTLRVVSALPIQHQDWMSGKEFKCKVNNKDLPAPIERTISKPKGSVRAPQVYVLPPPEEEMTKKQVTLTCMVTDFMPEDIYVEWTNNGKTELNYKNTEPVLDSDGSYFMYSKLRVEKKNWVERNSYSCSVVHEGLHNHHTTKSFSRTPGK

“anti-NIP chimeric IgG with wild type human IgG1 Fc and murine anti-NIP antigen-binding domain (hIgG1^WT) (antibody)” showed a Kd [1] of 1.3 µM and a Kd [2] of 2 µM.

“anti-NIP hIgG1-I253A/H310A/H435A (hIgG1^IHH) (from UniProt P01857 1-330) (antibody)” was tested, and the Kd [2] was 3.7 µM.

“anti-NIP hIgG1-M252Y/S254T/T256E/H433K/N434F (hIgG1^MST/HN) (from UniProt P01857 1-330) (antibody)” gave a Kd [2] of 3.8 µM.

Work on anti-NIP hIgG2 (hIgG2^WT) (antibody) yielded a Kd [1] of 1.4 µM and a Kd [2] of 5.2 µM.

For “anti-NIP mouse IgG1 (mIgG1^WT) (antibody)”, the Kd [1] was 8.1 µM and the Kd [2] was 0.8 µM.

With “anti-NIP mouse IgG2a (mIgG2a^WT) (antibody)” the Kd [1] was 3.4 µM and the Kd [2] was 3.6 µM.

Substance “anti-NIP mouse IgG2b (mIgG2b^WT) (antibody)” has a Kd [1] of 5 µM and a Kd [2] of 4.5 µM.
